Test results: the supplement of paper PMC10567573

B1: KLHL14 (parent)
chain: CAVLDDSIYLVGGYSWSMGAYKSS
B2: RHOBTB3 (parent)
chain: QLQSMPSRELASMNLDIVDLLKKA

Variants of: B1
Assay: protein stability index of a GFP-peptide fusion (GPS, HEK-293T) (PSI 1-6); higher = more stable
Details: c terminus: a fixed tail appended
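Also: lentivirally expressed fusions sorted by FACS into six bins by GFP to DsRed ratio, PSI derived from sequencing read proportions per bin multiplied by bin number.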

Row | Variant | protein stability index
1 | CAVLDDSIQLVGGYSWSMGAYKSS | 1.62
2 | CAVLDDSITLVGGYSWSMGAYKSS | 2.18
3 | CAVLDDSIALVGGYSWSMGAYKSS | 1.66
4 | CAVLDDSIDLVGGYSWSMGAYKSS | 2.37
5 | CAVLDDSIPLVGGYSWSMGAYKSS | 2.22
6 | CQVLDDSIYLVGGYSWSMGAYKSS | 1.93
7 | CSVLDDSIYLVGGYSWSMGAYKSS | 1.59
8 | CFVLDDSIYLVGGYSWSMGAYKSS | 2.84
9 | CLVLDDSIYLVGGYSWSMGAYKSS | 2.18
10 | CEVLDDSIYLVGGYSWSMGAYKSS | 2.37
11 | CMVLDDSIYLVGGYSWSMGAYKSS | 3.27
12 | CWVLDDSIYLVGGYSWSMGAYKSS | 2.5
13 | CGVLDDSIYLVGGYSWSMGAYKSS | 1.04
14 | CRVLDDSIYLVGGYSWSMGAYKSS | 1.3
15 | CNVLDDSIYLVGGYSWSMGAYKSS | 2.05
16 | CPVLDDSIYLVGGYSWSMGAYKSS | 1.61
17 | CKVLDDSIYLVGGYSWSMGAYKSS | 2.85
18 | CHVLDDSIYLVGGYSWSMGAYKSS | 1.85
19 | CDVLDDSIYLVGGYSWSMGAYKSS | 1.04
20 | CIVLDDSIYLVGGYSWSMGAYKSS | 2.13
21 | CYVLDDSIYLVGGYSWSMGAYKSS | 2.32
22 | CAVLDDSIYTVGGYSWSMGAYKSS | 1.96
23 | CAVLDDSIYNVGGYSWSMGAYKSS | 1.98

Row | Variant | protein stability index
24 | CAVLDDSIYQVGGYSWSMGAYKSS | 1.23
25 | CAVLDDSIYDVGGYSWSMGAYKSS | 1.94
26 | CAVLDDSIYPVGGYSWSMGAYKSS | 1.1
27 | CAVLDDSIYEVGGYSWSMGAYKSS | 1.33
28 | CAVLDDSIYGVGGYSWSMGAYKSS | 2.23
29 | CAVLDDSIYKVGGYSWSMGAYKSS | 2.05
30 | CAVLDDSIYRVGGYSWSMGAYKSS | 2.45
31 | CAVLDDSIYHVGGYSWSMGAYKSS | 1.59
32 | CAVLDDSIYWVGGYSWSMGAYKSS | 3.36
33 | CAVLDDSIYCVGGYSWSMGAYKSS | 3.76
34 | CAVLDDSIYIVGGYSWSMGAYKSS | 1.68
35 | CAVLDDSIYMVGGYSWSMGAYKSS | 1.95
36 | CAVLDDSIYAVGGYSWSMGAYKSS | 1.55
37 | CAVLDDSIYSVGGYSWSMGAYKSS | 1.83
38 | CAVLDDSIYFVGGYSWSMGAYKSS | 3.26
39 | KAVLDDSIYLVGGYSWSMGAYKSS | 2.42
40 | EAVLDDSIYLVGGYSWSMGAYKSS | 1.3
41 | IAVLDDSIYLVGGYSWSMGAYKSS | 2.83
42 | TAVLDDSIYLVGGYSWSMGAYKSS | 1.43
43 | AAVLDDSIYLVGGYSWSMGAYKSS | 1.72
44 | QAVLDDSIYLVGGYSWSMGAYKSS | 1.73
45 | YAVLDDSIYLVGGYSWSMGAYKSS | 1.82
46 | MAVLDDSIYLVGGYSWSMGAYKSS | 1.5

Row | Variant | protein stability index
47 | NAVLDDSIYLVGGYSWSMGAYKSS | 1.74
48 | PAVLDDSIYLVGGYSWSMGAYKSS | 2.28
49 | SAVLDDSIYLVGGYSWSMGAYKSS | 1.7
50 | WAVLDDSIYLVGGYSWSMGAYKSS | 2.63
51 | HAVLDDSIYLVGGYSWSMGAYKSS | 1.74
52 | LAVLDDSIYLVGGYSWSMGAYKSS | 2.09
53 | FAVLDDSIYLVGGYSWSMGAYKSS | 3.37
54 | DAVLDDSIYLVGGYSWSMGAYKSS | 2.42
55 | GAVLDDSIYLVGGYSWSMGAYKSS | 2
56 | RAVLDDSIYLVGGYSWSMGAYKSS | 2.03
57 | CAVLDYSIYLVGGYSWSMGAYKSS | 1.86
58 | CAVLDMSIYLVGGYSWSMGAYKSS | 4.25
59 | CAVLDRSIYLVGGYSWSMGAYKSS | 3.76
60 | CAVLDWSIYLVGGYSWSMGAYKSS | 3.66
61 | CAVLDISIYLVGGYSWSMGAYKSS | 3.34
62 | CAVLDHSIYLVGGYSWSMGAYKSS | 2.9
63 | CAVLDPSIYLVGGYSWSMGAYKSS | 2.97
64 | CAVLDKSIYLVGGYSWSMGAYKSS | 1.35
65 | CAVLDQSIYLVGGYSWSMGAYKSS | 1.95
66 | CAVLDSSIYLVGGYSWSMGAYKSS | 2.61
67 | CAVLDVSIYLVGGYSWSMGAYKSS | 1.97

Variants of: B2
Assay: as above
Details: c terminus: a fixed tail appended

Row | Variant | protein stability index
68 | QLQSMPSRELASMNLDIVDLLKQA | 3.36
69 | QLQSMPSRELASMNLDIVDLLKVA | 2.81
70 | QLQSMPSRELASMNLDIVDLLKWA | 1.3
71 | QLQSMPSRELASMNLDIVDLLKRA | 3.52
72 | QLQSMPSRELASMNLDIVDLLKPA | 3.22
73 | QLQSMPSRELASMNLDIVDLLKYA | 2.71
74 | QLQSMPSRELASMNLDIVDLLKSA | 3.05
75 | QLQSMPSRELASMNLDIVDLLKTA | 3.4
76 | QLQSMPSRELASMNLDIVDLLKKS | 3.47
77 | QLQSMPSRELASMNLDIVDLLKKE | 4.56
78 | QLQSMPSRELASMNLDIVDLLKKG | 3.92
79 | QLQSMPSRELASMNLDIVDLLKKT | 3.95
80 | QLQSMPSRELASMNLDIVDLLKKL | 3.56
81 | QLQSMPSRELASMNLDIVDLLKKR | 3.11
82 | QLQSMPSRELASMNLDIVDLLKKN | 4.14
83 | QLQSMPSRELASMNLDIVDLLKKF | 3.41
84 | QLQSMPSRELASMNLDIVDLLKKP | 3.92
85 | QLQSMPSRELASMNLDIVDLLKKI | 2.98
86 | QLQSMPSRELASMNLDIVDLLKKV | 3.34
87 | QLQSMPSRELASMNLDIVDLLKKH | 3.77
88 | QLQSMPSRELASMNLDIVDLLKKD | 4.65
89 | QLQSMPSRELASMNLDIVDLLKKY | 3.35
90 | QLQSMPSRELASMNLDIVDLLKKM | 3.39
91 | QLQSMPSRELASMNLDIVDLLKKC | 3.14
92 | QLQSMPSRELASMNLDIVDLLKKK | 3.54
93 | QLQSMPSRELASMNLDIVDLLKKQ | 3.49
94 | QLQSMPSRELASMNLDIVDLLKKW | 4.13
